According to the DeepSol protein solubility set:

Test: soluble on expression in E. coli; label from the status in PepcDB or PDB records

Row | Sequence | soluble on expression in E. coli
1 | MPSLAELTKSLSIAFENGDYAACEKLLPPIKIELIKNNLLIPDLSIQNDIYLNDLMITKRILEVGALASIQTFNFDSFENYFNQLKPYYFSNNHKLSESDKKSKLISLYLLNLLSQNNTTKFHSELQYLDKHIKNLEDDSLLSYPIKLDRWLMEGSYQKAWDLLQSGSQNISEFDSFTDILKSAIRDEIAKNTELSYDFLPLSNIKALLFFNNEKETEKFALERNWPIVNSKVYFNNQSKEKADYEDEMMHEEDQKTNIIEKAMDYAISIENIV | soluble
2 | MIWLVLVLSLFLFSCEKLNEIFLEEDLLQRPPSKRCSDCHAKIYEDWEKSRHAKAWVSEHFKEESENYSKLKCLSCHAPHQVDPLKKPVLRVERRHEGVNCIACHFKEETKAMHGPYKVFSPPHPSREDKNYTKSEICAGCHQKTYREWKIARVKTTCQQCHMKVVDYAWIMDKFPFFLFHSRKALHDHTFPAGKATPKDIKLILTEGALNIINVGIPHNLPTADQGNPKLYLIIEFYYKDGKKKVLRRVLSPQAKTALAYLIPYTVKIPRYEKLEKVRVSIYRRLAWEKKRELILSEELKKPF | not soluble
3 | MTKAVVIGGGLAGLATTALLLREGYEVHLVEQNEHLGGRAGTFELDGFRWDTGPSWYLMPDAMSHFFKLCGTSIDDHLDLVPLEPAYRVIDDHGEFIDVTSDIDAMAELFESREPGAGAKLRTYIDSATQVYNLAIDGFLYTNFTNFIPYLSPGMLRLLPKLLASLSTSLKVKVNTQFRDTKLRQILSYPAVFLSSDPSHTPALYHLMSHTDLVQGVSYPRGGFTAFIKALISLIDDAVLHLGTPVSAITTQGRNATGVQVGSEFIEADIVISCADQHHTETQLLPASLCAKPETSWKNKQPGLSTVLVLAGVKGEHTLLFPPTGTKISAKFSTAPPQNSRLQNPSRSPRPPQQIPMPHPKATRTSSSWSQYPPMSPLVTGPLTEKNLTWWAGSQLEHHHHHH | not soluble
4 | MDMLNTLRDTLSSVQAELSTGVEKLRMNVSANIVAQQKVSTESVNEILNTSAGNELLQNFQNLITEVEENGAEGGRLANLCSTRMGRCQQMCKEKADAVMEIDEFLRNSVEFDKKIREINAQISKLTRFCNQTEQAMTYLEALCEVAHTEGEVDLIRQQAKSAATIVQIECESPSVLTSALRSRPEDAVKAQQEEVMLEEFLSSKNMQLP | not soluble
5 | MAPPEGGEYLHKVTANSMSVNGDVPETVTAALADQRVEGRVCLEAGAGVGNTTAGLLAAGAKRVYAVTNDADHAATVRDRIGDRNADRLAVIEADLRATPLATDSVDLVAAHGLCNVLPPAELAPIAAELTRVAKPDGCLVVDDYAVPPADAAVNRLFALENAAARVVDGRPVLTFYPPAVLVAVFAANGWSVERRKTLLNPVPWTEAHLDAHAEVVREYAAALPDSLGEPLTAMAEDLVAAIGSERTGTMYSLAFRRADA | not soluble
6 | SLKVKAINLYTYKEPFKSPISTPKVKLTHRESLFTEIVTYSGETYYGECNAFLTNWYDKETILTVVNRLRQWIPQVLHKDMTSFDSWLPYLNQMNDAPAARSMVVMAVYQMYNDLHDFEVQYGATVSGLTNSQIETLLETRPKRIKLKWSTSLIKDLETIRLLNFDCDIAIDANESLTKPSFLQLANVNTSDIIYIEEPFKILEDLNDIDMSIFPRIAIDEKALSIEKIQSIIQQYPIQVVVLKPFRLGGIDRMLNAMKILKEKNIRFVVGGMYEFGLSRYFTAMLAKEGSYPGDITPHGYYFSNDIVETSGILKGGMIYFTPPKVKRSLLNKV | soluble
7 | MGSDKIHHHHHHMPHKASVFIVEFKFELESCPLGVVIPLEESKNKLASVKPLVDLTRPDMERVNQLILSRAGSDVQMIPEVANHLISSGGKRLRPMLTLASASMFGYEGDNHIKLATSVEFMHTATLLHDDVVDESDLRRGKSTARTIWGNQASVLVGDFLLGQAFRMMVDVGSLDALDVLSTAASVIAEGEVLQLSVAKNMETTEDDYLQVIRAKTAALFAAAAEVGPIVAKTDKASRSALKSYGMNLGLAFQLVDDVLDYGGKSADLGKNTGDDFREGKITLPVILSYRRGTQDERAFWRNAIEKGESSDENLEKALGLITKYNGLGDTIGRATHYGTIARDALAPLPQSPWKNALLEVIDFCIERLN | not soluble
8 | MHFKRVVKWGLNMYQNQRIKDKINILGVNFDNTTMLEMLENIKQFISSNTDDNLFIVTANPEIVDYATEHELYRNLINQADYVVPDGTGIVKASKRLKQPLKRRVPGIELLEECLKIAHVSHQRVYLLGSKNEIVETAEKKLQSQYPNIHFAHHHGYIHLEDETVIKRITSFNPDYIFVGMGFPKQEQWIQKHKDKFKHTVMMGVGGSFEVFSGSKKRAPQIFRKLNIEWVYRVLIDWKRIGRMISIPKFMLKVAIQKYKMKSK | not soluble
9 | MAQVKTQRLYYSLKDYFKEKYGKRVQKITVALPFTCPNRDGTKGRGGCTYCYDGSKPSMLSPVIPLEVQIKEGIERAKKKYGEDIYFTIYYQSYTNTYADIETLKKVYDTALKFEGVVGIDVGTRPDCAPEEVLDLLEYYANKGLEVWVEYGLQSANFETLKKINRQHGVSDFVDAVLRTKKRNLKVCAHMIIGLPGETREDFIETAKLIASLPIDGIKIHPLHVIKGTVMEKQYLNEEFKTLTLEEYAEYCADVIELLPPDMVVHRITGETDEERLIAPEWCTFKYKNAVIQKVRETLERRGTYQGARYPFYKYGVLEHHHHHH | soluble
10 | MERGRSDMEMINNMANCLILLSKAHQNDTKSRVFACKTCNKEFPSFQALGGHRASHRRSAALEGHAPPSPKRVKPVKHECPICGAEFAVGQALGGHMRKHRGGSGGGGGRSLAPATAPVTMKKSGGGNGKRVLCLDLNLTPLENEDLKLELGRFIF | soluble
11 | MIDHLSRAVISDPEQNLAIEQKESDHILPDSKMTPLRFRKRTLHETKIRTHSTLTENVLSHKLQFDGRIVSRTNVLPFIQKSIYSHQCGRRKGKQYRLGDFYVGATLTFLSSDHLSLPESIKENTLLKLRITNIDQIALDSLKTASMEQEDDIIIQETNDRLVFKAIQDVLKEKLHKRGVRILTGLGKYFQQLDKEGNGLLDKADFKQALKVFHLEVSEKDFESAWLILNDNGNGKVDYGEFKRGIIGEMNEYRKSYVRKAFMKLDFNKSGSVPIINIRKCYCAKKHSQVISG | soluble
12 | MTTKLVRPSDQATSNQVPVPGALVPHLDQCALLLDIDGTLLDLAPTPREVWVPPELEQTLTNLLVRTSGALALVSGRSINDIDLIFAPMRLPAVGGHGAEMRLSGEGEAIATHAPPLDSELKSRLAAIARISPGILLEDKGYSLALHYRLAPHTEKAIYEAVAAIRAENPEAPLEVLPGKSVCEIKHSGFTKATGVLELMTRAPFKGRRPIFIGDDVTDETVFAIMPELRGLAFSVGRYSELTSGHFDEPRDVRNWLARLLEPANLEHHHHHH | soluble
13 | MVKTEPLQITTELPGRTSAYRIAEVRPQVSGIILKRNFKEGSDIEAGVSLYQIDPATYQATYDSAKGDLAKAQAAANIAQLTVNRYQKLLGTQYISKQEYDQALADAQQANAAVTAAKAAVETARINLAYTKVTSPISGRIGKSNVTEGALVQNGQATALATVQQLDPIYVDVTQSSNDMMRLKQELANGTLKQENGKAKVSLITSDGIKFPQDGTLEFSDVTVDQTTGSITLRAIFPNPDHTMMPGMFVRARLEEGLNPNAILVPQQGLEHHHHHH | soluble
14 | MTELKDRLQVADKEKWNLTDIYDTIEDWESDFHKIEVLTNELHEFNGNIHDGNSLLAYLTKSEEISSIISLMFAYARLQSDLDTRDTDAQSLVDKVSQLHVKVSAAKSFFSPFLLSVDENTLHTYIEEAEGLQYYKEDLFELYRYKKHVLNKDQEEILSQMGEALSSPQHTYGMLNNADILFGEVTSNDGEKVTLTRGMYAKLIEDESREKRKEAYKAYYKPYVQLKNSIASTLSAAIKNNVTVSKLRKYPSALEKSLFGDMVPKEVYENLIETTKKNIQSLHTYNKLRKEKLNVDELRQYDLSVDLVQGVKQDIPYDNAFDIMIESLAPLGEEYIETLKSFKDKRYIDVRETPGKCSGAYNFGVYGVHPFILLNHHDDLNSLFTLTHECGHGMHTHYSHGYQPRISAHYTIFVAEVASTVNEVLLIHHLLKEAKDANVRNHLVNHFIEKFKGTFFTQIMFAEFEKITHEMAQQGKPLNAQVFSDVYENLFREYNGDSLVFDEEVKYGWARIPHFYRPFYVYKYATGFASAIQIADKLLSGDPNAQKNYLEFLKGGSSDYPLNLLKKAGVDLTTPEPIESALNRFSELVEEFSTL | not soluble
15 | MAVMIVGGGMAGATLALAISRLSQGTIPVDLIEAYSPLDKEHPGFDARALALSDGTRQQLAALGIWQAMSGNATAITDIHVSERGHASVVNLHAADYHVQALGHVVELHDVGQRLFSLLQQAPGVRLHCPAKVVAVTRTQENATLTLDNGTALTGQLLVAADGSHSMLSQSCGIHWQQHEYDQVAVIANVTTGEPHRGRAFERFTPHGPLALLPMSNGRSSLVWCHDKHRQHDVDGWSETEFRQQLQLAFGWRLGQFTHIGERHSYPLRLLTASQHTSHRLALVGNAAQTLHPIAGQGFNLGIRDVMSLAETLVEAVKNQQDIGQYSVLSRYQQRREPDQHTTVAITDGLVRLFANRYTALAVGRNLGLIAMNNLPLMRDAFARRTLGWVERLEHHHHHH | not soluble
16 | MSIPVPMETGANSEAWKKANEALMKIQGGMSKGLNASNGNNNTGQNSWMNNSFSFPNPPSAYGQFGGGFHPSTWGSGPIVPPPPPQQSAVNATAQAAYNQASFNYAPPPPPQNWNNGYGRGRGGGANNWNQQQRPQQFQPFALNRKNNSSAFPHLTSTFVPQGGGPQPLMGVGRGRGVPAPGPAKPPPPSAQRYMERAFEAANTVEDRQKTQEYLQKRLFPMLNAGNAHMVNWDNEPLPHEKNYELAPAWTPANKLPHQANGFNRKKSPSRRRSDEMSNSGAAGGGGQMKRARRDSDGASSDSDNSDPLEKMHFSSMNQKKTKAQKKAEKAARKAAKKLQKQQTPQKVKNAWKVAGGDTEARREDRARRFAETLYNVSKPSVSVPQHYFRRGQVIRGTCQNIEKSFFRLTAAPNPSEVRPLEVLRLSLQNVRDKYRARAEYSYLTSQMRSIRQDLTVQVIRNEFTVEVYEINARISLENADREEFNKCQSQLKLLYSEIENCANQAEFVAYRLLYYIAMDNQIDINALLRELTPELKENDCVEFALNVRKAVTMNNYVKFFRLFKNAPRMCPYIMDLFVDRERKKALGIITKAFRPTITYKLIAEFLSMKESTLIDWLEEELKWTDVEVGGTFDPKIPRNI | not soluble
17 | MTLAEENLRLFEKKFAILQEISNALVVTDNISAIANLMLDLAVNYTRAEKGSLLLLNERDELFILAGRGIDLQLMRTYRARLGEGIAGIVAKGRVPILVKDIDQDSRFQGMTRDRYKTPSFISCPIVSKDRLLGLLNINDKADGTPFLDDEFSLIKIIANQAAIALENAMLVNQLR | not soluble
18 | MSLHDYCLPCPTSLSGIAEVNPMSKPLVRWPINPLRTAVIVVDMQKVFCEPTGALYVKSTADIVQPIQKLLQAARAAQVMVIYLRHIVRGDGSDTGRMRDLYPNVDQILARHDPDVEVIEALAPQSDDVIVDKLFYSGFHNTDLDTVLRARDVDTIIVCGTVTNVCCETTIRDGVHREYKVIALSDANAAMDYPDVGFGAVSAADVQRISLTTIAYEFGEVTTTAEVIRREGHHHHHH | not soluble
19 | MVKVKIYYKDREWPPEYRKVLEKMKEIIDPVTGESILDSGVLAGLEVKGDTLKVWLKFESNAEYNILGSAAMAYSKIVGDIMEKFALVMFDKVYVYDLGNNPIGIFENKGNGRK | soluble
20 | MRKLWVAFFASLVLAMPSWVSARSHAGGGADVHLPVGHMWKHEGLDEQKWMEMVQKYTPEQEEEWKKVLDERNALRQQLNDENVKQAIKEKCKKMKKEREAALDRLIDQLVDKKITKEQFKKEWKQLHKKKQWMTKEEKQQLHLLHEQTRQAMENNDQEAMKKLLPQWLDHMKKKNERLAKWLQEVKQG | not soluble
